Each block holds one binder with its values, some of them ahead of it.
Target: Apurinic/apyrimidinic-endonuclease 1 (UniProt P27695 1-318)
Assay: SPR

Sequence of Apurinic/apyrimidinic-endonuclease 1 (P27695 whole entry): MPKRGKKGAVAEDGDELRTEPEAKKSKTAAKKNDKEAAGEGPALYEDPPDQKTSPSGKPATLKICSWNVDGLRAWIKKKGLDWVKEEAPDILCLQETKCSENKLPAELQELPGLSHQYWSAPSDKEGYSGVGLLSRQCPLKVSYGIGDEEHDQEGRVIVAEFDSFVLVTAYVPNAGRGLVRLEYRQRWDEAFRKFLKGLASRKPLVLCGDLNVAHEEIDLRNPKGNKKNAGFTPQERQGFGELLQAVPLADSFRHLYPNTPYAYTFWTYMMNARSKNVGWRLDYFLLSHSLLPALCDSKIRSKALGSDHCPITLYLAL

Kd: 4.9 nM
B1: LIGIIIα▵ZnF (170–922 amino acids) (domain or fragment)
chain: RHKDCLLREFRKLCAMVADNPSYNTKTQIIQDFLRKGSAGDGFHGDVYLTVKLLLPGVIKTVYNLNDKQIVKLFSRIFNCNPDDMARDLEQGDVSETIRVFFEQSKSFPPAAKSLLTIQEVDEFLLRLSKLTKEDEQQQALQDIASRCTANDLKCIIRLIKHDLKMNSGAKHVLDALDPNAYEAFKASRNLQDVVERVLHNAQEVEKEPGQRRALSVQASLMTPVQPMLAEACKSVEYAMKKCPNGMFSEIKYDGERVQVHKNGDHFSYFSRSLKPVLPHKVAHFKDYIPQAFPGGHSMILDSEVLLIDNKTGKPLPFGTLGVHKKAAFQDANVCLFVFDCIYFNDVSLMDRPLCERRKFLHDNMVEIPNRIMFSEMKRVTKALDLADMITRVIQEGLEGLVLKDVKGTYEPGKRHWLKVKKDYLNEGAMADTADLVVLGAFYGQGSKGGMMSIFLMGCYDPGSQKWCTVTKCAGGHDDATLARLQNELDMVKISKDPSKIPSWLKVNKIYYPDFIVPDPKKAAVWEITGAEFSKSEAHTADGISIRFPRCTRIRDDKDWKSATNLPQLKELYQLSKEKADFTVVAGDEGSSTTGGSSEENKGPSGSAVSRKAPSKPSASTKKAEGKLSNSNSKDGNMQTAKPSAMKVGEKLATKSSPVKVGEKRKAADETLCQTKVLLDIFTGVRLYLPPSTPDFSRLRRYFVAFDGDLVQEFDMTSATHVLGSRDKNPAAQQVSPEWIWACIRKRRLVAPC

Kd: 1050 nM
B2: LIGIIIα▵BRCT (1–755 amino acids) (domain or fragment)
chain: MAEQRFCVDYAKRGTAGCKKCKEKIVKGVCRIGKVVPNPFSESGGDMKEWYHIKCMFEKLERARATTKKIEDLTELEGWEELEDNEKEQITQHIADLSSKAAGTPKKKAVVQAKLTTTGQVTSPVKGASFVTSTNPRKFSGFSAKPNNSGEAPSSPTPKRSLSSSKCDPRHKDCLLREFRKLCAMVADNPSYNTKTQIIQDFLRKGSAGDGFHGDVYLTVKLLLPGVIKTVYNLNDKQIVKLFSRIFNCNPDDMARDLEQGDVSETIRVFFEQSKSFPPAAKSLLTIQEVDEFLLRLSKLTKEDEQQQALQDIASRCTANDLKCIIRLIKHDLKMNSGAKHVLDALDPNAYEAFKASRNLQDVVERVLHNAQEVEKEPGQRRALSVQASLMTPVQPMLAEACKSVEYAMKKCPNGMFSEIKYDGERVQVHKNGDHFSYFSRSLKPVLPHKVAHFKDYIPQAFPGGHSMILDSEVLLIDNKTGKPLPFGTLGVHKKAAFQDANVCLFVFDCIYFNDVSLMDRPLCERRKFLHDNMVEIPNRIMFSEMKRVTKALDLADMITRVIQEGLEGLVLKDVKGTYEPGKRHWLKVKKDYLNEGAMADTADLVVLGAFYGQGSKGGMMSIFLMGCYDPGSQKWCTVTKCAGGHDDATLARLQNELDMVKISKDPSKIPSWLKVNKIYYPDFIVPDPKKAAVWEITGAEFSKSEAHTADGISIRFPRCTRIRDDKDWKSATNLPQLKELYQLSKEKADFTVVA
